Earlier results on one substance are cited in paper PMC6235721.

pKd: −log10 of the molar value.

In the data set the target is FabI (Escherichia coli) (UniProt P0AEK4).
UniProt P0AEK4, sequence (P0AEK4 2-262): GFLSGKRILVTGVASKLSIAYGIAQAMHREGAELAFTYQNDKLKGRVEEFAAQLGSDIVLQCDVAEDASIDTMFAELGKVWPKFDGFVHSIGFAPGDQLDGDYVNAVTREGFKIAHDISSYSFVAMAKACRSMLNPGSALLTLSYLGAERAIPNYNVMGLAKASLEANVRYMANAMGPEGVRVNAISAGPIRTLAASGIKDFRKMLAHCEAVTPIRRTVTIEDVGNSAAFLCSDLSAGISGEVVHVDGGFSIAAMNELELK

With crypto-58-AcpP (from UniProt P0A6A8), the negative logarithm of the Kd (pKd) was 6.15.

As a reminder, the pKd is the Kd on a negative log10 scale, so that one unit is a factor of ten.
